{"source": "patent US20200131524", "proteins": {"B1": {"name": "3xFLAG-UPL3 (Arabidopsis UBIQUITIN PROTEIN LIGASE 3, CDS in PW1266 35S vector) (protein)", "chain": "METRSRKRAEATSAAPSSSSSSPPPPPSASGPTTRSKRARLSSSSSSSLAPTPPSSSTTTRSRSSRSAAAAAPMDTSTDSSGFRRGGRGNRGNNNDNSDKGKEKEHDVRIRERERERDRAREQLNMDAAAAAARSADEDDDNDSEDGNGGFMHPNMSSASSALQGLLRKLGAGLDDLLPSSGIGSASSSHLNGRMKKILSGLRAEGEEGKQVEALTQLCEMLSIGTEDSLSTFSVDSFVPVLVGLLNHESNPDIMLLAARALTHLCDVLPSSCAAVVHYGAVSCLVARLLTIEYMDLAEQSLQALKKISQEHPTACLRAGALMAVLSYLDFFSTGVQRVALSTAANMCKKLPSDASDYVMEAVPLLTNLLQYHDSKVLEYASICLTRIAEAFAPYPEKLDELCNHGLVTQAASLISTSNSGGGQASLSVSTYTGLIRLLSTCASGSPLGFRTLLLLGISSILKDILLGSGVSANASVSPALSRPADQIYEIVNLANELLPPLPEGVISLPTSTNALVKGSCQKKSSPSTSGKQEDILKISPREKLLGDQPELLQQFGLDLLPVLVQIYGSSVNGTIRHKCLSVIGKLMYFSSSEMIQSLIGDTNISSFLAGVLAWKDPQVLVPALQVAEILMEKLPETFSKVFVREGVVHAVDQLVLVGKPSHASPTDKDNDCVPGSARSRRYRRRSSNANSDGNQSEEPKNPASLTIGANHNSLDTPTASFMLRETVSSCAKAFKDKYFPSDGGDVDVGVTDDLLHLKNLCTKLTAGIDDHKVKGKGKSKASGPFLGDFSASKEEYLIGVISEILGEISKGDGVSTFEFIGSGVVAALLNYFSCGYFSKEKISELNLPKLRQEGLRRFKAFLEVALPFDGNEGKVPPMTVLIQKLQNALSSLERFPVVLSHPSRSLSGSARLSSGLSALAHPLKLRLCRASGEKTLRDYSSNIVLIDPLASLAAVEEFLWPRVQRSESALKPAAPIGNTEPGTLPSGAGVSSPSSSTPASTTRRHSSRSRSAINIGDTSKKDPVHEKGTSSSKGKGKGVMKPAQADKGPQTRSNAQKRAVLDKDTQMKPASGDSSSEDEELEISPVDIDDALVIEEDDISDDEDDDNEDVLDDSLPMCTPDKVHDVKLADSVDDDGLATSGRQMNPASGGTSGAAAARASDSIDTGIGNSYGSRGALSFAAAAMAGLGAASGRGIRGSRDLHGRTLNRSSDEPSKLIFTAAGKQLSRHLTIYQAVQRQLMLDEDDDDRFGGSDLVSSDGSRFNDIYTIMYQRPDSQVNRLSVGGASSTTPSKSTKSATTNSSVESQSHRASLLDSILQGELPCDLEKSNSTYNVLALLRVLEGLNQLCPRLRAQTLSDRFAEGKITSLDDLSTTAAKVPLDEFVNSKLTPKLARQIQDALALCSGSLPSWCYQLTRACPFLFPFQTRRQYFYSTAFGLSRALNRLQQQQGADGSGSTNEREMRIGRLQRQKVRVSRNRILDSAAKVMEMYSSQKAVLEVEYFGEVGTGLGPTLEFYTLLSHDLQKASLGMWRSSSGDKVSMQIGRDEIEDGKPSAANRDIVLAPLGLFPRPWPSTADISEGGQFHKVIEYFRLLGRVMAKALQDGRLLDVPLSTAFYKLILGQELDLHDIVLFDAELGKTLQELRVVVARKHYLEGVGGDNSSTISDLCLRGCRIEDLSLEFTLPGYPEYILRSGDEIVDITNLEEYISLVVDATVKRGVTRQIEAFRSGFNQVFDITSLQIFTPSELDYLLCGRRELWEVETLAEHIKFDHGYNAKSPAIINLLEIMGELTADQQRAFCQFVTGAPRLPPGGLAVLNPKLTIVRKHSSTSSAAANGAGASETADDDLPSVMTCANYLKLPPYSTKEIMYKKLLYAINEGQGSFDLS"}}, "molecular_target": "T1, 3XHA-LEC2 (Arabidopsis LEAFY COTYLEDON 2, CDS in PB7HA 35S vector), Q1PFR7", "T1 chain": "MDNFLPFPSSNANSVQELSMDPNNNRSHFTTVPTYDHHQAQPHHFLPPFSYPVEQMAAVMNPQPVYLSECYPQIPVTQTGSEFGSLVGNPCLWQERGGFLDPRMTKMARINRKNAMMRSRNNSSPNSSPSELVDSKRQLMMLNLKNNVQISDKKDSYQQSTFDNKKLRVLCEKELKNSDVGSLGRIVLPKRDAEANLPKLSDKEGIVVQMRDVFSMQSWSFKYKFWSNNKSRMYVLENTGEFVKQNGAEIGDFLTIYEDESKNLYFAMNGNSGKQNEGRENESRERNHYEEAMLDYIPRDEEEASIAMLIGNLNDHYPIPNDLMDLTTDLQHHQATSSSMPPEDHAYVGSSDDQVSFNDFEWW", "data": [{"protein": "B1", "values": [{"measurement": "ubiquitylation of LEC2 (HA immunoprecipitation and immunoblot after co-expression in Nicotiana benthamiana)", "value": "when co-expressed with 3xFLAG-UPL3, 3XHA-LEC2 ubiquitylation appears enhanced"}]}]}
